Data reported in publication PMC2670953 (Journal of molecular biology, 2009).

Target: DNA polymerase II (Pol II) of E. coli (E. coli, UniProt P21189 1-783)
Assay: SPR

Sequence of DNA polymerase II (Pol II) of E. coli (P21189 whole entry): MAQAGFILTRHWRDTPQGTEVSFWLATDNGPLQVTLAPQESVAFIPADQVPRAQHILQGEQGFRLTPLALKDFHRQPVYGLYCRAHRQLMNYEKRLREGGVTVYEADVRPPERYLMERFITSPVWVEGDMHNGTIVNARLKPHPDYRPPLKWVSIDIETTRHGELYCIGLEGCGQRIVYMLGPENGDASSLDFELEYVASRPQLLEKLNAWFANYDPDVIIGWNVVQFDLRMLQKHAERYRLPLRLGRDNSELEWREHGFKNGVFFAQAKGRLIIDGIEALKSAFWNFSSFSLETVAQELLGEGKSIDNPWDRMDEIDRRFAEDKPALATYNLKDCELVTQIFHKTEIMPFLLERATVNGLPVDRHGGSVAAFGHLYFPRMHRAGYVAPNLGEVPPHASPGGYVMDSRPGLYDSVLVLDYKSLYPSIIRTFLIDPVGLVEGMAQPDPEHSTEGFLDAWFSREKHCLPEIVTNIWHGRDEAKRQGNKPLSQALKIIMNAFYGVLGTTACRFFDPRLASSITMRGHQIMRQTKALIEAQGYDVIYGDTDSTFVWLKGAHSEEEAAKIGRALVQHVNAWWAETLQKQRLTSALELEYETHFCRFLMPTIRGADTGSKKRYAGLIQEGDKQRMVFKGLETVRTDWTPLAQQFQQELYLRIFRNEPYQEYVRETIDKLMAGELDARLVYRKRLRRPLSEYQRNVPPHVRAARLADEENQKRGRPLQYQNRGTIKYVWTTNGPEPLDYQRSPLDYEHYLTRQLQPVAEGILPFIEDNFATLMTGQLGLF

Kd: 182 nM
koff: 0.00273 s⁻¹
kon: 15100 M⁻¹ s⁻¹
B1: mutant β^148–152 sliding clamp, N-terminally His6 and cAMP-dependent kinase motif tagged (natural protein, E. coli)
chain: MKFTVEREHLLKPLQQVSGPLGGRPTLPILGNLLLQVADGTLSLTGTDLEMEMVARVALVQPHEPGATTVPARKFFDICRGLPEGAEIAVQLEGERMLVRSGRSRFSLSTLPAADFPNLDDWQSEVEFTLPQATMKRLIEATQFSMAAAAAAYYLNGMLFETEGEELRTVATDGHRLAVCSMPIGQSLPSHSVIVPRKGVIELMRMLDGGDNPLRVQIGSNNIRAHVGDFIFTSKLVDGRFPDYRRVLPKNPDKHLEAGCDLLKQAFARAAILSNEKFRGVRLYVSENQLKITANNPEQEEAEEILDVTYSGAEMEIGFNVSYVLDVLNALKCENVRMMLTDSVSSVQIEDAASQSAAYVVMPMRL
